This data set deals with RHA (DHX9/RNA helicase A) (UniProt Q08211 1-1270). The data set is described as follows: EMSA; 0.5 uM RNA, 0-4 uM RHA; preferred over TAR-PolyA; EMSA: binding buffer A, 10 mM Tris-HCl pH 7.5, 140 mM KCl, 10 mM KCl (so in the source); probably NaCl), 1 mM MgCl2, 37 C 10 min, 1.5% agarose; ITC: binding buffer B. The settings on record: protein: recombinant; tags: N-terminal His6 and Mocr tags; label: site-specific 2H labels in some NMR samples; three-way junction.

This note sets out measurements from PMC8191761, “The three-way junction structure of the HIV-1 PBS-segment binds host enzyme important for viral infectivity”.

RHA (DHX9/RNA helicase A), sequence (Q08211 whole entry): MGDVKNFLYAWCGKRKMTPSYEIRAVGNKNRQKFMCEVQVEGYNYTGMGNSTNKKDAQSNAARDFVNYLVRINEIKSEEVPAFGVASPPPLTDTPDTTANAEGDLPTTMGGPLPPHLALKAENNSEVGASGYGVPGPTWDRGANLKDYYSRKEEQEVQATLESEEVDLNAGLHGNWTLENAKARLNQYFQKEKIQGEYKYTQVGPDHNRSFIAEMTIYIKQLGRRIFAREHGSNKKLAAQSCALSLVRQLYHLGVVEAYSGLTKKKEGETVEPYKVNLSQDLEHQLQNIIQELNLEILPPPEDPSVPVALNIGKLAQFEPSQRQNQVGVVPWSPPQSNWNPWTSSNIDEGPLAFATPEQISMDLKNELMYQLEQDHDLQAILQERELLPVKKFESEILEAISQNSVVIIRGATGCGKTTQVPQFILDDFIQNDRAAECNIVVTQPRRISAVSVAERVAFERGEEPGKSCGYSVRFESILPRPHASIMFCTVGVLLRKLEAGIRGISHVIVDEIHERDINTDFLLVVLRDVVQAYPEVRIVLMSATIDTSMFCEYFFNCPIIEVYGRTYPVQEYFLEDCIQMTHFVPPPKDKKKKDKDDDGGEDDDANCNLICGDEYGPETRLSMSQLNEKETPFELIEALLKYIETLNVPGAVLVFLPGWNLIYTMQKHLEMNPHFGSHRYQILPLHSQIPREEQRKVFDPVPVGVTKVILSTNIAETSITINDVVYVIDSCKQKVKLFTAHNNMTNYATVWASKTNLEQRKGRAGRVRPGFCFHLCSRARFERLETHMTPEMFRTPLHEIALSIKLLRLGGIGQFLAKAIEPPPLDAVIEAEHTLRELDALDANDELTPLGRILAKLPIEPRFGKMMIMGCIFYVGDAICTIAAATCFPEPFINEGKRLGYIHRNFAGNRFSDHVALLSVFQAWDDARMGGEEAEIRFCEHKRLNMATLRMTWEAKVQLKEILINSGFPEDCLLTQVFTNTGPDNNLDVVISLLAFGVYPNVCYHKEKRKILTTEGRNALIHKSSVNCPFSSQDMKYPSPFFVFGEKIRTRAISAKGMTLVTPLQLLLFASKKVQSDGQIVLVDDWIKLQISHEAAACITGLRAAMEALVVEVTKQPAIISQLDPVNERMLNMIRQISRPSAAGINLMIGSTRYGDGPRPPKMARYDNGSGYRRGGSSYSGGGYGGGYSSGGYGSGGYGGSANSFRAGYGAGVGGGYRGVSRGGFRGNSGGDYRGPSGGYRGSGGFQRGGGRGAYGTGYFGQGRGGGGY

B1: PBS-segment (nt 125-223) (structured_RNA)
RNA: GGCUCUGGUAACUAGAGAUCCCUCAGACCCUUUUAGUCAGUGUGGAAAAUCUCUAGCAGUGGCGCCCGAACAGGGACUUGAAAGCGAAAGUAAAGCCAGAGCC
Take B1: the binding result is recorded as “binds”.
